This is an account of results in PMC12162814.

Series [1] concerns the target T1, H-NSctd WT (Salmonella enterica serovar Typhimurium, UniProt P0A1S2 85-137). In words: NMR titration.
For series [2], the target named is T1, H-NSctd WT. The series can be described thus: ITC.
Series [3] concerns the target T1, H-NSctd WT. In words: NMR titration. The source holds these as a separate data set.
The target in series [4] is H-NSctd T115A (Salmonella enterica serovar Typhimurium, UniProt P0A1S2 85-137, T115A). The series can be described thus: NMR titration.
The target of series [5] is H-NSctd K107A (Salmonella enterica serovar Typhimurium, UniProt P0A1S2 85-137, K107A). In words: NMR titration.

Usually Kd stands for the equilibrium constant for the complex coming apart. Higher therefore signals lower affinity.

B1: 3AT DNA (dsDNA)
DNA 1: CGCATATATGCG
DNA 2: CGCATATATGCG
With B1, the Kd worked out at 6.3 ± 0.6 µM in series [1]; 7.6 ± 0.5 µM in series [2]; 1.5 ± 0.5 µM in series [3]; 4.1 ± 1.2 µM in series [4]; 5.3 ± 1.6 µM in series [5].
